Measured values as given in publication PMC7619206, “Human mitochondrial glutathione transferases: Kinetic parameters and accommodation of a mitochondria-targeting group in substrates” (Bioorganic & medicinal chemistry, 2024).

How the values were obtained:
[1] = target: T1, hGSTA1-1 (Homo sapiens, UniProt P08263); test: UV/Vis initial rates of GS-conjugate formation, Michaelis-Menten fit; details: read-out: KM (mM) / hGSTA1-1; 10 mM GSH, 0.1 M HEPES pH 8.0, 30 °C
T1 construct: gene GSTA1
T1 sequence (P08263 1-222): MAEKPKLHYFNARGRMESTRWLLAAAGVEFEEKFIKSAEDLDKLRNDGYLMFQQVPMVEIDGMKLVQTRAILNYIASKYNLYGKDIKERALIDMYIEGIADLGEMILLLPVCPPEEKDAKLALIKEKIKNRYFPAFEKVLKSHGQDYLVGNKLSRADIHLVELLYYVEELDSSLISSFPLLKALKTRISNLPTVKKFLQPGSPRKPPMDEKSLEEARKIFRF

[2] = target: T2, hGSTK1-1 (Homo sapiens, UniProt Q9Y2Q3); test: as above; details: read-out: hGSTK1-1; 10 mM GSH, 0.1 M HEPES pH 8.0, 30 °C
T2 construct: gene GSTK1
T2 sequence (Q9Y2Q3 1-226): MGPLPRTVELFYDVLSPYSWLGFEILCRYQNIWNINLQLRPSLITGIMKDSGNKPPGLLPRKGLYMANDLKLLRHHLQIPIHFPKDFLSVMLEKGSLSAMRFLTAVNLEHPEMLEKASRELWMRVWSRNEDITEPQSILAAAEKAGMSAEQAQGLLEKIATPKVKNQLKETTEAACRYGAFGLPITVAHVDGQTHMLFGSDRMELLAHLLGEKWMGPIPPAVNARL
Text: UV/Vis initial rates of GS-conjugate formation, Michaelis-Menten fit on hGSTK1-1

[3] = target: T3, hGSTA4-4 (Homo sapiens, UniProt O15217); test: as above; details: read-out: hGSTA4-4; 10 mM GSH, 0.1 M HEPES pH 8.0, 30 °C
T3 construct: gene GSTA4
T3 sequence (O15217 1-222): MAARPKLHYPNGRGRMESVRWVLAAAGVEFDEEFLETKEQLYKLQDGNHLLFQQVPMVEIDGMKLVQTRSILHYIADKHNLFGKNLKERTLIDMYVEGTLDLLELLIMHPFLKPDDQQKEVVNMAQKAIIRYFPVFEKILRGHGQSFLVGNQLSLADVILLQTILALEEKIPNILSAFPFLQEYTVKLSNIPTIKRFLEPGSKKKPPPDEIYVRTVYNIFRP
Text: UV/Vis initial rates of GS-conjugate formation, Michaelis-Menten fit on hGSTA4-4

[4] = substrate: O=[N+]([O-])c1cc([N+](=O)[O-])c(NCCCC[P+](c2ccccc2)(c2ccccc2)c2ccccc2)cc1Cl; test: purified protein; details: 10 mM GSH, 0.1 M HEPES pH 8.0, 30 °C
[5] = substrate: O=C(NCCCCC[P+](c1ccccc1)(c1ccccc1)c1ccccc1)c1ccc(Cl)c([N+](=O)[O-])c1; test: purified protein; details: 10 mM GSH, 0.1 M HEPES pH 8.0, 30 °C
[6] = substrate: O=C(NCCCCC[P+](c1ccccc1)(c1ccccc1)c1ccccc1)c1cc([N+](=O)[O-])ccc1Cl; test: purified protein; details: 10 mM GSH, 0.1 M HEPES pH 8.0, 30 °C
[7] = substrate: COC(=O)c1cc([N+](=O)[O-])ccc1Cl; test: UV/Vis initial rates of GS-conjugate formation, Lineweaver-Burk fit; assay type: biochemical, Homo sapiens; details: 10 mM GSH, 0.1 M HEPES pH 8.0, 30 °C
Text: (§1) UV/Vis initial rates of GS-conjugate formation, Lineweaver-Burk fit on hGSTA1-1

[8] = substrate: COC(=O)c1ccc(Cl)c([N+](=O)[O-])c1; test: as above; assay type: biochemical, Homo sapiens; details: 10 mM GSH, 0.1 M HEPES pH 8.0, 30 °C
Text: as §1

[9] = substrate: COC(=O)c1cc([N+](=O)[O-])ccc1Cl; test: as above; assay type: biochemical, Homo sapiens; details: 10 mM GSH, 0.1 M HEPES pH 8.0, 30 °C; remark: listed apart in the source
Text: (§2) UV/Vis initial rates of GS-conjugate formation, Lineweaver-Burk fit on hGSTK1-1

[10] = substrate: COC(=O)c1ccc(Cl)c([N+](=O)[O-])c1; test: as above; assay type: biochemical, Homo sapiens; details: 10 mM GSH, 0.1 M HEPES pH 8.0, 30 °C; remark: listed apart in the source
Text: as §2

[11] = substrate: COC(=O)c1cc([N+](=O)[O-])ccc1Cl; test: as above; assay type: biochemical, Homo sapiens; details: 10 mM GSH, 0.1 M HEPES pH 8.0, 30 °C; remark: listed apart in the source
Text: (§3) UV/Vis initial rates of GS-conjugate formation, Lineweaver-Burk fit on hGSTA4-4

[12] = substrate: COC(=O)c1ccc(Cl)c([N+](=O)[O-])c1; test: as above; assay type: biochemical, Homo sapiens; details: 10 mM GSH, 0.1 M HEPES pH 8.0, 30 °C; remark: listed apart in the source
Text: as §3

O=[N+]([O-])c1ccc(Cl)c([N+](=O)[O-])c1 [compound 1, 1-chloro-2,4-dinitrobenzene]
Km [1]: 0.128 ± 0.018 mM
Km [2]: 1900 ± 320 µM
Km [3]: 253 ± 52 µM

B1: hGSTA1-1 (Homo sapiens) (protein)
chain: MAEKPKLHYFNARGRMESTRWLLAAAGVEFEEKFIKSAEDLDKLRNDGYLMFQQVPMVEIDGMKLVQTRAILNYIASKYNLYGKDIKERALIDMYIEGIADLGEMILLLPVCPPEEKDAKLALIKEKIKNRYFPAFEKVLKSHGQDYLVGNKLSRADIHLVELLYYVEELDSSLISSFPLLKALKTRISNLPTVKKFLQPGSPRKPPMDEKSLEEARKIFRF
notes: N-terminal 6xHis tag and TEV site (pNIC-28-BsaI), not cleaved; E. coli BL21(DE3), codon-optimised synthetic gene; Ni-NTA
Km [4]: 146 ± 20 µM
kcat [4]: 14.7 ± 0.6 s⁻¹
Km [5]: 441 ± 10 µM
kcat [5]: 9.50 ± 0.45 s⁻¹
Km [6]: 720 ± 17 µM
kcat [6]: (4.67 ± 0.19) x 10^-2 s^-1
Km [7]: 1670 ± 50 µM
kcat [7]: 2.31 ± 0.55 s⁻¹
Km [8]: 2050 ± 770 µM
kcat [8]: 8.85 ± 2.79 s⁻¹

B2: hGSTK1-1 (Homo sapiens) (protein)
chain: MGPLPRTVELFYDVLSPYSWLGFEILCRYQNIWNINLQLRPSLITGIMKDSGNKPPGLLPRKGLYMANDLKLLRHHLQIPIHFPKDFLSVMLEKGSLSAMRFLTAVNLEHPEMLEKASRELWMRVWSRNEDITEPQSILAAAEKAGMSAEQAQGLLEKIATPKVKNQLKETTEAACRYGAFGLPITVAHVDGQTHMLFGSDRMELLAHLLGEKWMGPIPPAVNARL
notes: as for B1
Km [9]: 1540 ± 30 µM
kcat [9]: (9.45 ± 0.68) x 10^-2 s^-1
Km [10]: 301 ± 8 µM
kcat [10]: 0.106 ± 0.008 s⁻¹
Km [4]: 360 ± 67 µM
kcat [4]: 0.103 ± 0.008 s⁻¹

B3: hGSTA4-4 (Homo sapiens) (protein)
chain: MAARPKLHYPNGRGRMESVRWVLAAAGVEFDEEFLETKEQLYKLQDGNHLLFQQVPMVEIDGMKLVQTRSILHYIADKHNLFGKNLKERTLIDMYVEGTLDLLELLIMHPFLKPDDQQKEVVNMAQKAIIRYFPVFEKILRGHGQSFLVGNQLSLADVILLQTILALEEKIPNILSAFPFLQEYTVKLSNIPTIKRFLEPGSKKKPPPDEIYVRTVYNIFRP
notes: as for B1
Km [11]: 949 ± 27 µM
kcat [11]: (5.61 ± 0.37) x 10^-2 s^-1
Km [12]: 3580 ± 90 µM
kcat [12]: 0.521 ± 0.203 s⁻¹
Km [4]: 142 ± 9 µM
kcat [4]: 4.59 ± 0.08 s⁻¹
Km [5]: 826 ± 5 µM
kcat [5]: 2.13 ± 0.05 s⁻¹
